# Laboratory results reported in patent publication US20230203158A1.
# Assays:
# human TNFα (human) = human TNFα (human) (UniProt P01375); assay: cell-based or functional assay
# [1] = target: IL-10 receptor of HEK-BLUE IL-10 cells (the cells express all the components of the IL-10 signaling pathway); assay: cell-based or functional assay
# human TNFα (human), sequence (P01375 77-233 limits assumed): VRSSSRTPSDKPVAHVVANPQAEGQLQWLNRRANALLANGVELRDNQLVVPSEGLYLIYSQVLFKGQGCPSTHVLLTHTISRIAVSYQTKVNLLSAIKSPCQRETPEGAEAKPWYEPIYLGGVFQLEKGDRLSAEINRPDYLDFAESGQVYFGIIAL
"IC50 (nM, replicate 2), inhibition of TNFα signaling in HEK-BLUE TNFα cells (human TNFα (human))","EC50 (pM), HEK-BLUE IL-10 signaling assay (SEAP) [1]",Substance
0.07 nM,,Etanercept (PRO078) (Fc fusion)
,21 pM,recombinant human IL-10 (BioLegend #573204) (from UniProt P22301 19-178) (ligand)
